Data taken from US20100196385A1 (AstraZeneca / MedImmune, published 2010).
Numbering of substitutions follows the chain as printed.

Assays:
human Jagged1 [1] = target: T1, human Jagged1 (human, UniProt P78504 34-1218); test: FACS, 5 µg/ml, 293T cells with human Jagged1
T1 construct: whole, on cells
Experimental: (§1) The ability of the purified antibodies to bind to human Jagged1 and Dll1 was determined by FACS analysis. […] Cells were resuspended in PBS containing 2% FCS and seeded at 50000 cells/well into V-bottomed plates. Anti-DLL4 antibodies diluted in PBS containing 2% FCS were added at a final concentration of 5 or 15 μg/ml and plates were incubated for 1 h at 4° C. […] Data was analyzed by comparing the shift in geometric mean fluorescence in the mock-transfected cells to that observed in the Jagged1- or Dll1-transfected cells and is shown in Tables 16 and 17.

human Dll1 [2] = target: T2, human Dll1 (human, UniProt O00548 18-723); test: FACS, 15 µg/ml, 293T cells with human Dll1 vs mock
T2 construct: whole, on cells
T2 sequence (looked up): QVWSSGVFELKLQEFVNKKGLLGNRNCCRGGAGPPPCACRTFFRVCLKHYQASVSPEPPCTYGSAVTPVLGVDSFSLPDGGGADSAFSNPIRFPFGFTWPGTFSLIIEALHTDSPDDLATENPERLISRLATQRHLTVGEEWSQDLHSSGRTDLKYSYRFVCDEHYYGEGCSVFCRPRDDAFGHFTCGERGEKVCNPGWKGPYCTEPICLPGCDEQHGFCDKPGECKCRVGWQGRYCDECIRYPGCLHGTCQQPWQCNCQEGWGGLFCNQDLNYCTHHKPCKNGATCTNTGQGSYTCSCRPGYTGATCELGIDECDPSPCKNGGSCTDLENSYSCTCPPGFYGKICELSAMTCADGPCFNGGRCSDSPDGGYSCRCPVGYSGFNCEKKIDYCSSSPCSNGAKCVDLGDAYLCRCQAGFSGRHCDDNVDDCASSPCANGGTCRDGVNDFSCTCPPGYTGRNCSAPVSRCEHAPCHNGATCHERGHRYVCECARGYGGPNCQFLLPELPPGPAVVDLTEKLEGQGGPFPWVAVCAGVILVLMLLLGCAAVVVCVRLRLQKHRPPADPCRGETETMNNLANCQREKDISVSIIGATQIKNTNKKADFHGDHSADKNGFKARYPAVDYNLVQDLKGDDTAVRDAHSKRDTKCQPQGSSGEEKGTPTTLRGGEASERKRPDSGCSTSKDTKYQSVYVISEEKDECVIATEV
Experimental: as §1

full length human DLL4 [3] = target: T3, full length human DLL4 (human, UniProt Q9NR61 27-685); test: FMAT competition, supernatant vs Alexa-647 human Notch1/Fc, 293T cells with human DLL4; FMAT competition with Alexa-647 human Notch1/Fc, native human DLL4 on 293T cells, 4 C, n = 3
T3 construct: whole, on cells; also called native DLL4 expressed in HEK293 cells
T3 sequence (Q9NR61 27-685): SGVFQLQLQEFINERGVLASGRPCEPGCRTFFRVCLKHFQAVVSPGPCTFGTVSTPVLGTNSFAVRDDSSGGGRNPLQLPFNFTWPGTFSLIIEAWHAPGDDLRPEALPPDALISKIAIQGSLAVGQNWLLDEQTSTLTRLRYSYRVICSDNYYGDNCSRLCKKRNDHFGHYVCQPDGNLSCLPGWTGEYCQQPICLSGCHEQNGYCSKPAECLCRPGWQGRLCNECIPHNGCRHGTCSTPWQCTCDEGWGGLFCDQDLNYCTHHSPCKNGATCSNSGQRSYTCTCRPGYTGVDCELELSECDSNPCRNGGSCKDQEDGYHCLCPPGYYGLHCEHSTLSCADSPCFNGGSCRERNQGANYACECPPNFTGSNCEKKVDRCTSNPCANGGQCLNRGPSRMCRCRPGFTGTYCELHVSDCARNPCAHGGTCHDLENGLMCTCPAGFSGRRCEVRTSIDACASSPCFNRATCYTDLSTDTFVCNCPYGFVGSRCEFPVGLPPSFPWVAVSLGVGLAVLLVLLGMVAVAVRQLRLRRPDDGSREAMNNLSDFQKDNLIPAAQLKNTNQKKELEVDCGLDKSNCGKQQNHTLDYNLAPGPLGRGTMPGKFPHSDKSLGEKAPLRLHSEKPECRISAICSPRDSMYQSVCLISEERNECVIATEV
Experimental: (§2) Transfected and untransfected 239T cells were reconstituted in PBS containing 2% FCS and 5000 transfected and 17500 non-transfected cells were plated in 20 μl into wells of a 384-well tissue culture plate (Corning Costar, catalog #3712). Subsequently, 20 μl of hybridoma supernatant was added and plates were incubated at 4° C. for 1 h, at which time 20 μl of Alexa-647 labeled human Notch1/Fc was added at a final concentration of 6.7 ng/ml. After a further 3 h incubation at 4° C., the amount of bound Notch1/Fc was determined by reading the fluorescence in each well using an FMAT 8200 instrument (Applied Biosystems). Results are expressed as % inhibitions with the minimum inhibition in the assay being determined by the effects of non-DLL4 binding supernatants prepared in a similar way as described in example 2, and the maximum inhibition being defined as the signal obtained in the presence of a saturating concentration of unlabeled Notch1/Fc. N.T.=not tested

full length human DLL4 [4] = target: T3, full length human DLL4; test: FMAT competition, supernatant vs Alexa-647 human Notch1/Fc, 293T cells with human DLL4; FMAT competition with Alexa-647 human Notch1/Fc, native human DLL4 on 293T cells, 4 C, n = 2
Experimental: as §2

human Dll1 [5] = target: T2, human Dll1; test: FACS, 15 µg/ml, 293T cells with human Dll1
Experimental: as §1

full length human DLL4 [6] = target: T3, full length human DLL4; test: FMAT, hybridoma supernatant, 293T cells with human DLL4; FMAT, hybridoma supernatant, native full length human DLL4 on live 293T cells, room temperature
Experimental: (§3) Cells diluted in PBS containing 2% FBS were seeded at a density of 3000 expressing and 15000 mock transfected cells per well in 384 well plates (Corning Costar, catalog #3712). Immediately after plating, 15 or 20 μl/well of hybridoma supernatants and 10 μl/well of secondary antibody (Goat anti-human IgG Fc Cy5, final concentration 750 ng/ml) were added and plates incubated for 3 h at room temperature prior to reading the fluorescence on the FMAT 8200 instrument (Applied Biosystems). The binding of human Notch1/Fc chimera (R&D systems, catalog #3647-TK), diluted 1:2 from 2.86 μg/ml was used as a positive control for DLL4 and human Notch3/Fc chimera diluted from 10 μg/ml was used a positive control for binding to Jagged1. Results for 12 hybridoma supernatants showing binding of hybridoma supernatants to human/cynomolgus monkey DLL4 and human Jagged are shown in Table 3.

human Jagged1 [7] = target: T1, human Jagged1; test: FMAT, hybridoma supernatant, 293T cells with human Jagged1
Experimental: as §3

full length human DLL4 [8] = target: T3, full length human DLL4; test: FMAT competition, purified antibody vs Alexa-647 human Notch1/Fc, 293T cells with human DLL4
Experimental: To discriminate between the purified antibodies based upon their ability to prevent the interaction between full-length recombinant DLL4 and soluble Notch1/Fc, the following assays were performed. Transfected and untransfected 239T cells were reconstituted in PBS containing 2% FCS and 5000 transfected and 17500 non-transfected cells were plated in 30 μl into wells of a 384-well tissue culture plate (Corning Costar, catalog #3712). Subsequently, 30 μl of purified antibodies, serial diluted from 5 μg/ml hybridoma supernatant was added and plates were incubated at 4° C. for 1 h, at which time 20 μl of 100 ng/ml Alexa-647 labeled human Notch1/Fc was added. After a further 3 h incubation at 4° C., the amount of bound Notch1/Fc was determined by reading the fluorescence in each well using an FMAT 8200 instrument (Applied Biosystems).

human Jagged1 [9] = target: T1, human Jagged1; test: FACS, 5 µg/ml, 293T cells with human Jagged1 vs mock
Experimental: as §1

full length human DLL4 [10] = target: T3, full length human DLL4; test: FACS titration, HEK293 cells with human DLL4
Experimental: The binding affinities of the purified antibodies for DLL4 was estimated using is both FACS and BIAcore techniques. […] The cells were then washed and incubated with goat anti-human IgG-Fc-Cy5+5 μg/mL 7-Amino-Actinomycin (7AAD) for 30 minutes at 4° C.
In this equation, F=mean fluorescence, LT=total molecular mAb concentration, P′=proportionality constant that relates arbitrary fluorescence units to bound mAb, M=cellular concentration in molarity, n=number of receptors per cell, B=background signal, and KD=equilibrium dissociation constant. For each mAb titration curve an estimate for KD is obtained as P′, n, B, and KD are allowed to float freely in the nonlinear analysis. Table 20 summarizes the affinity estimates for the anti-DLL4 antibodies for human and cynomolgus monkey DLL4 derived using the methodology described above

[11] = target: T4, human soluble DLL4 (R&D systems catalog #1056-D4-050) (human, UniProt Q9NR61 27-524); test: Biacore T100, antibody immobilised, soluble human DLL4 as analyte
T4 construct: Catalog number as printed; perhaps the same product as #1506-D4; also called antigen DLL4
T4 sequence (Q9NR61 27-524 limits assumed): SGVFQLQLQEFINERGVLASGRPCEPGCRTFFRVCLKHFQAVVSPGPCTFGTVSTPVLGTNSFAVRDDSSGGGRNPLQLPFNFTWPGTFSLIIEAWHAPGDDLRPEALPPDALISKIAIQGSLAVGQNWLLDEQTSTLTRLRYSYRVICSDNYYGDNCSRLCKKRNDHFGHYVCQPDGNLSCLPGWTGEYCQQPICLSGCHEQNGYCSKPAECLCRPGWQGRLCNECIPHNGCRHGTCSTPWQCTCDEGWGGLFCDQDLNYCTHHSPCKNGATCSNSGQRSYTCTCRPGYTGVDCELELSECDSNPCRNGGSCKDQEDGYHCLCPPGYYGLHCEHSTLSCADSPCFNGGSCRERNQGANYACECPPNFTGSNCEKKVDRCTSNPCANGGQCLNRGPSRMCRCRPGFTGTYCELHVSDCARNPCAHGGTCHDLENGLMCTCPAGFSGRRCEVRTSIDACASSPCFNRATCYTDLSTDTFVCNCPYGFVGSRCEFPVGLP
Experimental: For Biacore analysis, each purified anti-DLL4 antibody was immobilized on a CM5 sensor chip within a T100 using standard amine coupling. Immobilization levels were kept below 200 RU. The concentration of DLL4 was determined by UV-VIS spectroscopy using a molar absorptivity at 280 nm of 110, 440 M⁻¹cm⁻¹, which was calculated from the sequence of the protein using a method developed by Pace et al. (G. R. Grimsley and C. N. Pace (2003) in Current Protocols in Protein Science (John Wiley & Sons, Inc.), 3.1.1-3.1.9). The antigen DLL4 (R&D systems; human catalog #1056-D4-050 or mouse, catalog #1389-D4-050) was diluted to a starting concentration of 32-64 nM and tested in a 3-fold dilution series in triplicate. The running buffer contained HBS-P with 0.1 mg/ml BSA and binding responses were collected at 23° C. Bound complexes were regenerated with a 15 s pulse of 10 mM of sodium hydroxide. The response data were globally fitted with a simple 1:1 interaction model and Table 20 summarizes the kₐ, kd and KD estimates obtained for the anti-DLL4 antibodies when binding to human soluble DLL4 was assessed.

full length mouse DLL4 = target: T5, full length mouse DLL4 (mouse, UniProt Q9JI71 27-686); test: FACS competition vs rat Notch1/Fc, HEK293 cells with mouse DLL4
T5 construct: whole, on cells
T5 sequence (Q9JI71 27-686): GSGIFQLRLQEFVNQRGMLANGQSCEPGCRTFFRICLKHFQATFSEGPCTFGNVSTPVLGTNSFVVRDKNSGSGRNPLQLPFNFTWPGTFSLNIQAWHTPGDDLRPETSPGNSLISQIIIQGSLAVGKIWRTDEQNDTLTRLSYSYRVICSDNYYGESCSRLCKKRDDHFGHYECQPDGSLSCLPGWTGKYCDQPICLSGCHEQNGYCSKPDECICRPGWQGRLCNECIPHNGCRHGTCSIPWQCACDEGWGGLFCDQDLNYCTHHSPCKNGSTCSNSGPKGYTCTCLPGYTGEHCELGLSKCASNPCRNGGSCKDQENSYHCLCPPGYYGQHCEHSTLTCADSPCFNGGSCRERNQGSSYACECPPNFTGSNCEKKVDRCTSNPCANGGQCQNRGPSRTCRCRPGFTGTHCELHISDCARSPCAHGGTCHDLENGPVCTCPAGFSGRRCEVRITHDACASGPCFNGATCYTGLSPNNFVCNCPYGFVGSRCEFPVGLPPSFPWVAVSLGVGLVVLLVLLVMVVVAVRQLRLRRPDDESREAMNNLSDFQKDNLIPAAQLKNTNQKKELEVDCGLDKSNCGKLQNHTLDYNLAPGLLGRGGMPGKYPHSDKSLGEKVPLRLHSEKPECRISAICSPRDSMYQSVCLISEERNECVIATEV
Experimental: (§4) Further experiments were performed on selected antibodies using HEK293 cells that were stably transfected with either human, mouse or cynomolgus monkey DLL4 using retroviral constructs. In these experiments, anti-DLL4 antibodies (final concentration: 10-0.01 μg/ml) diluted in PBS containing 2% FCS were added to DLL4-expressing HEK 293 cells (50000 cells/well diluted in PBS containing 2% FCS) and incubated for 1 h at 4° C. Subsequently, Alexa-647 labeled human, rat or APC labeled mouse Notch1/Fc (e.g. R&D Systems, catalog #3647-TK-050, 1057-TK-050, 5267-TK-050, respectively) was added at a final concentration of 0.01-0.5 μg/ml and plates were incubated for a further 2 h at 4° C. prior to washing and reading on a FACSCalibur instrument.

full length human DLL4 [12] = target: T3, full length human DLL4; test: FACS competition vs human Notch1/Fc, HEK293 cells with human DLL4
Experimental: as §4

T1 sequence (P78504 34-1218): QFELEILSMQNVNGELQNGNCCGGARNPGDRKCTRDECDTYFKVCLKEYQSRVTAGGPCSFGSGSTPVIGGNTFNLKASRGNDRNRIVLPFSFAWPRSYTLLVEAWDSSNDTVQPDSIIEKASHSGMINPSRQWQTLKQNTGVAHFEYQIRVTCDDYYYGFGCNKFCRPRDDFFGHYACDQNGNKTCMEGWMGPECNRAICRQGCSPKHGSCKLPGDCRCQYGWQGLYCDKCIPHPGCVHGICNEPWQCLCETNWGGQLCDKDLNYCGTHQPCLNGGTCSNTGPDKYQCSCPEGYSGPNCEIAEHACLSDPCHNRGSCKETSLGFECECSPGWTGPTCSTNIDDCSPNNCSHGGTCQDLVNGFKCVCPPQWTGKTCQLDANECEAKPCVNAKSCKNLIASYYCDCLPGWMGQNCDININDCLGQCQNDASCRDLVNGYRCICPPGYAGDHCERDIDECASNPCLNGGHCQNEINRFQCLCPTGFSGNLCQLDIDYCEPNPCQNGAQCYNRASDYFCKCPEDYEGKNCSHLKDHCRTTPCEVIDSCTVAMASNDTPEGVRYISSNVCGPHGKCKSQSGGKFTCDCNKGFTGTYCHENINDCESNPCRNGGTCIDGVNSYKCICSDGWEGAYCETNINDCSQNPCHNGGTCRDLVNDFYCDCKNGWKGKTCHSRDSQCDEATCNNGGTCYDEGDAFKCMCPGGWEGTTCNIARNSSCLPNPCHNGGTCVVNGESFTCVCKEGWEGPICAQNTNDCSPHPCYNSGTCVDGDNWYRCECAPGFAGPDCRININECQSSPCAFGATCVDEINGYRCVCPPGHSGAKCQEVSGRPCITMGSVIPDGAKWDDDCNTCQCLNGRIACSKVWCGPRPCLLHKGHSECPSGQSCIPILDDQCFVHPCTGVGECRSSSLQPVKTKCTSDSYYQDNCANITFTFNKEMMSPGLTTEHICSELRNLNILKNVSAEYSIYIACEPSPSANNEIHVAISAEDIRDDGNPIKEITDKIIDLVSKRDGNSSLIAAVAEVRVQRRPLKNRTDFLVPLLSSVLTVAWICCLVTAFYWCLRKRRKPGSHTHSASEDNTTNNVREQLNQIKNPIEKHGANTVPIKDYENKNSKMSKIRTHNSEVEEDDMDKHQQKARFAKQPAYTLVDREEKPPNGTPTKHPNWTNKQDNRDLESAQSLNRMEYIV

B1: 20G8 (antibody, IgG4, V domains shown)
VH: QVQLVQSGAEVKKPGASVKVSCKASGYTFTSYGISWVRQAPGQGLEWMGWISVYNGNTNYAQKLQGRVTMTTDTSTSTAYMEVRSLRSDDTAVYYCARDRVPRIPRTTEAFDIWGRGTMVTVCS
VL: QSVLTQPPSASGTPGQRVTISCSGSSSNIGSYYVYWYQQLPGTAPKLLIYRDNQRPSGVPDRFSGSKSGTSASLAIRGLRSDDEADYYCAAWDDSLSGHWVFGGGTKLTVL
notes: Fully human; also used where no isotype is printed
B1 was tested, and the “Jagged1/293T X Geo mean” value (human Jagged1 [1]) was 16, the Dll1/mock ratio (human Dll1 [2]) was 1.34 and the “% inhibition n = 3” value (full length human DLL4 [3]) was 143%. The “% inhibition n = 2” value (full length human DLL4 [4]) was 88%, the “Dll1/293T X Geo mean” value (human Dll1 [5]) was 40 and the Count (full length human DLL4 [6]) was 182. For the same binder, the FL1 (full length human DLL4 [6]) was 10500, the FL1 x count (full length human DLL4 [6]) was 1.9e+06 and the Count (human Jagged1 [7]) was 3. The FL1 (human Jagged1 [7]) was 1500, the FL1 x count (human Jagged1 [7]) was 4490 and the “% inhibition at 0.020 nM” value (full length human DLL4 [8]) was -5%. The “% inhibition at 0.070 nM” value (full length human DLL4 [8]) was 3%, the “% inhibition at 0.21 nM” value (full length human DLL4 [8]) was -4% and the “% inhibition at 0.62 nM” value (full length human DLL4 [8]) was -14%. The “% inhibition at 1.9 nM” value (full length human DLL4 [8]) was 29%, the “% inhibition at 5.6 nM” value (full length human DLL4 [8]) was 114% and the “% inhibition at 16.7 nM” value (full length human DLL4 [8]) was 115%. It also gave an IC50 (full length human DLL4 [8]) of 2020 pM and a Jagged1/mock ratio (human Jagged1 [9]) of 1.12.

B2: 21H3 IgG2 (antibody, V domains shown)
VH: B1 VH with S31N, S35T, L45P, V53A, G66D, M70V, V83L, R106V, R116Q, C123S
VL: B1 VL with Y33F, D52N, K67E, R77S, D82E, K107R
notes: Formatted as IgG2
For B2, the Kd (full length human DLL4 [10]) was 320 pM, the Kd [11] was 598 pM and the koff [11] was 0.000155 s⁻¹. For the same binder, the kon [11] was 259000 M⁻¹ s⁻¹, the IC50 (full length mouse DLL4) was 13500 pM and the IC50 (full length human DLL4 [12]) was 730 pM.

B3: 21H3RK IgG2 (antibody, V domains shown)
VH: B1 VH with S31N, S35T, L45P, V53A, G66D, M70V, V83L, R106V, R116Q, C123S
VL: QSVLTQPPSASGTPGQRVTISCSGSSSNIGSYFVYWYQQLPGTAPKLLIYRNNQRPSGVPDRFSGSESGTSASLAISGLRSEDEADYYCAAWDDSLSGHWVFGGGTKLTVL
notes: IgG2
For B3, the Kd (full length human DLL4 [10]) was 225 pM, the Kd [11] was 721 pM and the koff [11] was 0.00016 s⁻¹. For the same binder, the kon [11] was 222000 M⁻¹ s⁻¹, the IC50 (full length mouse DLL4) was 15600 pM and the IC50 (full length human DLL4 [12]) was 750 pM.
